The values below come from patent publication US20220348609A1 (University of Washington, published 2022).

Residue numbers refer to the chain shown, from its start. Names may count otherwise. A value given as a limit tells only on which side of the number the result lay.

Assay [1] deals with T1, human αvβ6 integrin on cells (A431 carcinoma cells; K562 cells stably transfected with αvβ6) (human, UniProt P06756 31-1048; P18564 22-788).
T1 construct: whole, on cells; Endogenous on A431 cells, transfected on K562 cells; also called αvβ6(+) cells; K562 avb6 transfected clone A4
The assay is described as follows: row 'X(selectivity)' of the drawn table: αvβ6 over αvβ8, cell surface competition assay.

Assay [2] deals with T2, human αvβ6 integrin, soluble protein (biotinylated for yeast display; in solution for BLI) (human, UniProt P06756 31-992; P18564 22-707, limits assumed, biotinylated in the yeast display experiments (site not stated)).
T2 construct: also called avb6; alpha(v) beta (6) integrin
Put plainly: yeast surface display, flow cytometry, 50 pM biotinylated αvβ6 stained with SAPE. The text has this: Yeast Display: Standard yeast surface display techniques were used to screen designs for binding and directed evolution. Genes encoding the designs were cloned into petcon2 in frame with N-term aga2 and C-term myc tag. Surface expression of Myc was detected using Anti-C Myc antibody and binding was detected by using biotinylated human αᵥβ₆ and stained with phycoerythrin conjugated streptavidin for FACS. Two different buffers were used for the binding and washing steps for yeast display: Binding Buffer 20 mM TRIS, 150 mM NaCl, pH=8.0, 1% BSA, 1 mM Ca(II) and 1 mM Mg(II), Wash Buffer: 20 mM TRIS, 150 mM NaCl, pH=8.0, 0.5% BSA, 1 mM Ca(II) and 1 mM Mg(II).
On the technique in general: A flow cytometer gives signals particle by particle.

Assay [3] addresses T1, human αvβ6 integrin on cells (A431 …). The assay is described as follows: cell-based or functional assay.
Assay [4] addresses T3, αvβ1 integrin on stably transfected K562 cells (UniProt P06756 31-1048; P05556 21-798, limits assumed).
T3 construct: whole, on cells; also called avb1; alpha(v) beta (1) integrin
Put plainly: cell surface binding on stably transfected K562 cells.

For assay [5], the target named is T4, αvβ3 integrin on stably transfected K562 cells (UniProt P06756 31-1048; P05106 27-788, limits assumed).
T4 construct: whole, on cells; also called avb3; alpha(v) beta (3) integrin
Described as above.

Assay [6] addresses T5, αvβ5 integrin on stably transfected K562 cells (UniProt P06756 31-1048; P18084 24-799, limits assumed).
T5 construct: whole, on cells; also called avb5; alpha(v) beta (5) integrin
The assay is described as above.

The target in assay [7] is T6, α5β1 integrin on stably transfected K562 cells (UniProt P08648 42-1049; P05556 21-798, limits assumed).
T6 construct: whole, on cells; also called a5b1; alpha 5 beta 1
The description is as above.

Assay [8] has as its target T7, α8β1 integrin on stably transfected K562 cells (UniProt P53708 39-1063; P05556 21-798, limits assumed).
T7 construct: whole, on cells; also called a8b1; alpha 8 beta 1
The assay is described as above.

The target of assay [9] is T8, αiibβ3 integrin on stably transfected K562 cells (UniProt P08514 32-1039; P05106 27-788, limits assumed).
T8 construct: whole, on cells; also called aiibb3; alpha (iib) beta (3) integrin
The assay is described as above.

Assay [10] has as its target T2, human αvβ6 integrin, soluble protein …. The assay is described as follows: BLI (Octet RED96), His-tagged binder on Ni-NTA sensor, αvβ6 in solution. Here is the method:
(§1) Data was collected on an Octet™ RED96 (Forte Bio) and processed using the instrument's software. His Tagged protein binders were immobilized on Ni-NTA octet sensors. The tips are then dipped into wells containing different concentrations of αᵥβ₆. Association and dissociation steps were recorded for 900 s and 1200 s respectively. An empty sensor with no loaded binding protein was included to discard any non-specific binding of αᵥβ₆ to the octet tip.
For orientation: In BLI a coated tip is dipped into the sample, and binding shifts an interference pattern.

Assay [11] has the same target. Put plainly: BLI titration of purified protein against αvβ6 (FIG. 2f,g); BLI, purified BP1 against αvβ6. Here is the method:
as §1

The target of assay [12] is T9, human αvβ8 integrin on cells (K562 cells stably transfected with αvβ8; HeLa b8 cells in the TMLC assay) (human, UniProt P06756 31-1048; P26012 43-769).
T9 construct: whole, on cells; also called avb8; alpha(v) beta (8) integrin
Put plainly: cell surface titration on K562 cells stably transfected with αvβ8; K562 cells with αvβ8; BP1 lacking A39K.

In assay [13] the target is T2, human αvβ6 integrin, soluble protein …. Put plainly: BLI (Octet RED96), His-tagged binder on Ni-NTA sensor, αvβ6 in solution. This is another data set of the same source.
For assay [14], the target named is T1, human αvβ6 integrin on cells (A431 …). The assay is described as follows: flow cytometry titration of AF488-labelled binder on A431 cells, 5 hours at 4° C., one site-specific binding fit. The source says:
We set out to test the ability of these binders to bind to αᵥβ₆(+) cells and block TGF-β mediated downstream signaling. We generated fluorescently labelled BP1 and BP2 by conjugating Alexafluor-488 to an engineered C-term cysteine via maleimide chemistry. The fluorescently labelled proteins were titrated against αᵥβ₆ positive human epidermoid carcinoma A431 cells.
Epidermoid cancer cells (A431) and human embryonic kidney 293T cells (HEK 293T) were purchased from American Type Culture Collection (ATCC) and grown in Dulbecco's Modified Eagle Medium (DMEM, Gibco) supplemented with 10% fetal bovine serum (FBS, Gibco) in a humidified atmosphere with 5% CO2 at 37° C. Binding assays were performed on A431 carcinoma cells. A431 cells were dissociated from culture flasks with enzyme-free cell dissociation buffer (Gibco). Varying concentrations of AG-AF488 and E13T-AF488 were incubated with 5×10^4 A431 cells in 1×TBS with 0.1% BSA, 1 mM Ca2+, and 1 mM Mg2+ (BTBS) rotating in suspension for 5 hours at 4° C. Sufficient incubation volumes were used to avoid >5% ligand depletion. After incubation, cells were washed with BTBS and analyzed by flow cytometry on an Accuri™ C6 instrument (BD Biosciences), and data were quantified using FlowJo™ software (TreeStar). Kd values were determined by fitting the data to a one site—specific binding curve using Prism™ 7 (GraphPad Software).

T2 sequence (P06756 31-992 limits assumed, chain 1 of 2): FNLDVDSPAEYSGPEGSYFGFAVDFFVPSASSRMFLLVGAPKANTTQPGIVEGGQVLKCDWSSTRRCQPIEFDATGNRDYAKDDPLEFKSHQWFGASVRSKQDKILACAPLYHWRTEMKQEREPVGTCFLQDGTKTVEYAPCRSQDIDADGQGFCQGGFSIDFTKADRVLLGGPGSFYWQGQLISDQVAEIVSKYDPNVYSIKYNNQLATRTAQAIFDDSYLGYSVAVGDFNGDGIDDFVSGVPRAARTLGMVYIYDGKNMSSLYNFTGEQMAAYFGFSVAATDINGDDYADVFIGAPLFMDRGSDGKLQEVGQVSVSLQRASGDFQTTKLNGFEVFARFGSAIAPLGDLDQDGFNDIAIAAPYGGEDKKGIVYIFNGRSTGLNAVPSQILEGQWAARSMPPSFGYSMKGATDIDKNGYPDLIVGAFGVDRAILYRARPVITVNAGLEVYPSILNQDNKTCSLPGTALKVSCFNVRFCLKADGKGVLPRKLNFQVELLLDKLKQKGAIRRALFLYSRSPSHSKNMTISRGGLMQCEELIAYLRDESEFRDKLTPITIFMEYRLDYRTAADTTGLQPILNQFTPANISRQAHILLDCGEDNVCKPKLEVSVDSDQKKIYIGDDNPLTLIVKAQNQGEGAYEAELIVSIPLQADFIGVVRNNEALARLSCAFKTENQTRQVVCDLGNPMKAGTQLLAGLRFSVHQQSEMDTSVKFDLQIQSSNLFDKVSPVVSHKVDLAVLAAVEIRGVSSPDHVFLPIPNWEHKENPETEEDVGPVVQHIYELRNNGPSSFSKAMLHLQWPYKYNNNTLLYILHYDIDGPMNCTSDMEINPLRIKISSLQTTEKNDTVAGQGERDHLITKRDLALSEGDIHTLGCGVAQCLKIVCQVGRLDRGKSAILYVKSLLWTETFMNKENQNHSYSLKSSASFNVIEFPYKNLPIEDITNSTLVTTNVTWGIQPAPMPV
T2 sequence (P18564 22-707 limits assumed, chain 2 of 2): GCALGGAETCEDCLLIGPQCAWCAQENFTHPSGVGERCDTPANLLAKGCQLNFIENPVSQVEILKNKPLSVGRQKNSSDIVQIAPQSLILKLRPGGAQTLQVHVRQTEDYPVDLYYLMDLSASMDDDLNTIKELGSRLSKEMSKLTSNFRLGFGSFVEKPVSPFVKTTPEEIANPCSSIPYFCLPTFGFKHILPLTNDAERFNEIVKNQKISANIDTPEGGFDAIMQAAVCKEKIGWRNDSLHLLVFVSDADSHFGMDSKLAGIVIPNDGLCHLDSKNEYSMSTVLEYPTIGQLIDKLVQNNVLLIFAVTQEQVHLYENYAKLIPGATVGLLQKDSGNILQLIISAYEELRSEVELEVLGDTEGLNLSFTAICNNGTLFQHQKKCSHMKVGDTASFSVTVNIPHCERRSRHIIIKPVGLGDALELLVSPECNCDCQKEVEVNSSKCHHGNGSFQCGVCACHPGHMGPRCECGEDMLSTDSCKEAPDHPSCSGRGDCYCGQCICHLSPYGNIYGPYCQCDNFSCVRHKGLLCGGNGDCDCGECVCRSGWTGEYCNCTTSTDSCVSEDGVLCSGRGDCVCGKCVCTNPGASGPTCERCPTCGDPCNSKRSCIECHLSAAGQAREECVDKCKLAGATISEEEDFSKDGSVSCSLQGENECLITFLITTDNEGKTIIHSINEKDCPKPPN
T1 sequence (P06756 31-1048, chain 1 of 2): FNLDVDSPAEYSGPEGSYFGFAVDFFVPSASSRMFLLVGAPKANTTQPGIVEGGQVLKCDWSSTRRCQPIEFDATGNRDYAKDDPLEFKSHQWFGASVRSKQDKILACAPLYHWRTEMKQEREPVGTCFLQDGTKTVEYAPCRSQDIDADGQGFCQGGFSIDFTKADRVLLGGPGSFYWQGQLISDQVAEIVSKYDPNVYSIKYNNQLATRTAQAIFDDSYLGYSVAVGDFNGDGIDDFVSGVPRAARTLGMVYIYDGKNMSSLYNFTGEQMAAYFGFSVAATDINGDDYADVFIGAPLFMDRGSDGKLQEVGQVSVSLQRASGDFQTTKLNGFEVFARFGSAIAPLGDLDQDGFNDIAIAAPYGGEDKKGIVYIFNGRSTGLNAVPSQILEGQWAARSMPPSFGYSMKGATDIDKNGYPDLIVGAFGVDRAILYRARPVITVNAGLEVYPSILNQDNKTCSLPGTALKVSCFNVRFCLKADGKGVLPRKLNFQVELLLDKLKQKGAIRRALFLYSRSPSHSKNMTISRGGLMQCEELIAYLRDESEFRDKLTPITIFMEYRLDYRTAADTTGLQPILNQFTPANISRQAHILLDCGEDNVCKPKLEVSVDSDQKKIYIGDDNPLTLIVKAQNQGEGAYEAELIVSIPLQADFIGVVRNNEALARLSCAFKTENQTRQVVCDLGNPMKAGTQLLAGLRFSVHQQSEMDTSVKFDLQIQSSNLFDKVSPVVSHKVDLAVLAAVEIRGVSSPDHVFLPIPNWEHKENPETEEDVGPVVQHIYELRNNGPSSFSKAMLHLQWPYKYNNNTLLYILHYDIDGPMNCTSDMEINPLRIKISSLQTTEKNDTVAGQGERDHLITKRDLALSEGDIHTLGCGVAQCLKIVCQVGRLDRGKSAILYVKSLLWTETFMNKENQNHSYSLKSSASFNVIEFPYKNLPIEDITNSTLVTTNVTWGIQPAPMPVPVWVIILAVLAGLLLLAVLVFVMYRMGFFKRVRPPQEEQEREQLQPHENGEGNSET
T1 sequence (P18564 22-788, chain 2 of 2): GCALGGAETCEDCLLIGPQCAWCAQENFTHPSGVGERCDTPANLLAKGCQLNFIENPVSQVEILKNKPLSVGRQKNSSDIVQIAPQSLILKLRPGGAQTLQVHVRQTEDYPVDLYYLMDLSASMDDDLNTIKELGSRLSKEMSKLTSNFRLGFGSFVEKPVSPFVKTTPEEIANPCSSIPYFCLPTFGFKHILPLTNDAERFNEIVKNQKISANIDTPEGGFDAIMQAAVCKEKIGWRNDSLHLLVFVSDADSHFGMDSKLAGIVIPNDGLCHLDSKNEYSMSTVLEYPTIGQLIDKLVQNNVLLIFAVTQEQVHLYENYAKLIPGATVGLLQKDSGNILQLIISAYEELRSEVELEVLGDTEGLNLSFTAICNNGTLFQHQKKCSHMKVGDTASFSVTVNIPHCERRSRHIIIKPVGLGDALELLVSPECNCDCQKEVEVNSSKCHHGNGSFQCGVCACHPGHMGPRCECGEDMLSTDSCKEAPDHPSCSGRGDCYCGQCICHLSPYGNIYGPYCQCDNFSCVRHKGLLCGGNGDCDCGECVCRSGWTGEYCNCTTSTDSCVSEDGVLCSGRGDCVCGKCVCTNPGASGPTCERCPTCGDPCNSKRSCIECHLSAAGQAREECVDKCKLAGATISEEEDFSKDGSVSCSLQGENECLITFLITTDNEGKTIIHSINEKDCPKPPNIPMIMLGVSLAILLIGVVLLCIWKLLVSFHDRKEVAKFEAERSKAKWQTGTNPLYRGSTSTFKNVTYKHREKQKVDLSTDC
T9 sequence (P06756 31-1048, chain 1 of 2): as the sequence (P06756 31-1048, chain 1 of 2) above
T9 sequence (P26012 43-769, chain 2 of 2): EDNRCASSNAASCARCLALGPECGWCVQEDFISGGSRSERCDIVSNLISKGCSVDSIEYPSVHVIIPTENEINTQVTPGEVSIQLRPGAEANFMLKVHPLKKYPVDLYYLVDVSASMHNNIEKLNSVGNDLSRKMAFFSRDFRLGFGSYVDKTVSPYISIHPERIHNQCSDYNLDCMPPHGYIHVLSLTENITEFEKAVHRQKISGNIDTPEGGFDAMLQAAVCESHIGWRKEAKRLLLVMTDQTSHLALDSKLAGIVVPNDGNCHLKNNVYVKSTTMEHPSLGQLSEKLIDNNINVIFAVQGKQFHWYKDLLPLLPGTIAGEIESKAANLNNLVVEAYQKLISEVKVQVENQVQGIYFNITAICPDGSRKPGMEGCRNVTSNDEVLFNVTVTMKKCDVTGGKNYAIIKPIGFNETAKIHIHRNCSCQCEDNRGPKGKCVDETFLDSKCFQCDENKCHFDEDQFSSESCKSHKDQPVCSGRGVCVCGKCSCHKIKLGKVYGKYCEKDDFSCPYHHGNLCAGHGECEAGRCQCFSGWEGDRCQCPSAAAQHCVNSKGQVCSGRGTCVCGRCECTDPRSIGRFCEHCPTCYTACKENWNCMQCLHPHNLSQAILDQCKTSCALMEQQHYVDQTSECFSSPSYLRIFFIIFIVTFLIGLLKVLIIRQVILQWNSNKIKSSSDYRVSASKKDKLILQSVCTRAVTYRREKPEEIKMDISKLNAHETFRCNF
T4 sequence (P06756 31-1048 limits assumed, chain 1 of 2): as the sequence (P06756 31-1048, chain 1 of 2) above
T4 sequence (P05106 27-788 limits assumed, chain 2 of 2): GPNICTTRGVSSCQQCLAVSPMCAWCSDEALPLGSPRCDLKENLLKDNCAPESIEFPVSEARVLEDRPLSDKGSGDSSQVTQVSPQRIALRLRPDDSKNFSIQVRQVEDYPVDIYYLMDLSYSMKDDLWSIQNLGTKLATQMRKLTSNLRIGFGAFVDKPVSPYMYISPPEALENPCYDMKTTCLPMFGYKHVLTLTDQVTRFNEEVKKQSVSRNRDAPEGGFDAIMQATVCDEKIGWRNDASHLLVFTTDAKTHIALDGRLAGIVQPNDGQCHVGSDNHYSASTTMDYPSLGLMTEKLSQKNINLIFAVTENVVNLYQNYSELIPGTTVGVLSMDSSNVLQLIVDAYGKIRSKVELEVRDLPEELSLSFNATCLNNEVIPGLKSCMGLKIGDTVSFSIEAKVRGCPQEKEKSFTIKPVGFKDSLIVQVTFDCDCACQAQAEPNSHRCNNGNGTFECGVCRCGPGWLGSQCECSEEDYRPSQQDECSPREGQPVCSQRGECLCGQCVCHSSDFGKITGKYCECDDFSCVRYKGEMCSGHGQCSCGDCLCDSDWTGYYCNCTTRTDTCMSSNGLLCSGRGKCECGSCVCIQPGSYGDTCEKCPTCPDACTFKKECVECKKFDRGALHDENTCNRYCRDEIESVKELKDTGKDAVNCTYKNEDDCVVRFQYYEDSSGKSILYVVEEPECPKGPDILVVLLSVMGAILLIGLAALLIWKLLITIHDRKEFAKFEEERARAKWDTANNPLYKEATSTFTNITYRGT

B1: av6_9 (designed binder)
chain: MAVVRFVFRGDLAELMLRAVKDHLKKEGPHWNITSDTSKGAELVVRGIHESDAKRIARTVEKLTNGKSQSLVL
notes: Yeast display: Aga2 fusion with C-terminal myc tag; also purified from E. coli with C-terminal His tag
Take B1: the “X(selectivity)” value in assay [1] worked out at 3 X.

B2: av6_13 (designed binder)
single chain: B1 chain with D36V, T37E, K39S, G40Q, A41V
In the case of B2, the binding result in assay [2] was “binds”.

B3: evolved variant from the first round of design (02_E2V_T12A_E40V_S44I_T63I) (designed binder)
chain: AVVRFVFRGDLAELMLRAVKDHLKKEGPHWNITSRGNELVVRGIHESDAKRIQKEFPSVQSTIQA
notes: No substitutions were applied here; also called original crystallized variant
In the case of B3, the “X(selectivity)” value in [1] was found to be 3 X.

B4: av6_1 (designed binder)
single chain: MAVVRFVFRGDLAELMLRAVKDHLKKEGPHWNITSTNNGAELVVRGIHESDAKRIARTVEKLTNGKSQSLVLT
Regarding B4, the binding result in assay [2] is on record as “binds”.

B5: av6_5 (designed binder)
single chain: B4 single chain with T36D, N37E, N38S, A40F
For the molecule B5, the binding result in assay [2] is “binds”.

B6: av6_4 (designed binder)
single chain: MAVVRFVFRGDLAELMLRAVKDHLKKEGPHWNITSTNNGAELVVRGIHESDAKRIAKWARLKFPGTDTRIEVR
For the molecule B6, in assay [2], the binding result is “binds”.

B7: av6_8 (designed binder)
single chain: B6 single chain with T36D, N37E, N38S, A40F
With B7, the binding result in assay [2] is given as “binds”.

B8: BP1 (av6_3_E13T) (designed binder)
chain: MAVVRFVFRGDLATLMLRAVKDHLKKEGPHWNITSTNNGAELVVRGIHESDAKRIAKWVEKRFPGVHTETQQD
notes: also called BPI; not shown: C-terminal His tag (pET29b, NdeI/XhoI)
For the molecule B8, the “IC50 of the block of αvβ6 mediated TGF-β activation, TMLC luciferase reporter co-culture assay” value in assay [3] was determined as 0.199 nM. Further, the binding result in [4], in [5], in assay [6], in assay [7], in [8] and in assay [9] was “no binding (tested: up to 200 nM)” throughout. For the same molecule, the Kd – broadly, a measure of binding affinity in units of concentration – in [10] is 0.334 nM; in [11], below 1 nM; in assay [12], around 7.3 nM.

B9: av6_3 (designed binder)
chain: B8 chain with T14E
notes: the purified protein (BLI, cell assays) carries a C-terminal His tag; also called αv6_3; original unevolved av6_3; not shown: C-terminal His tag of the purified protein (pET29b, NdeI/XhoI)
In the case of B9, the “apparent Kd (pooled screen)” value in [13] amounted to 1.18 nM. The “X(selectivity)” value in assay [1] is 14 X.

B10: BP1 labelled with Alexa Fluor 488 on an engineered C-terminal cysteine (designed binder)
chain: B8 chain
modifications: Alexa Fluor 488 C5 maleimide on the engineered C-terminal cysteine
notes: also called E13T-AF488; fluorescently labelled BP1; not shown: engineered C-terminal cysteine and any tag
B10: the Kd in assay [14] was 0.167 nM.

B11: av6_3 M15RG64R (designed binder)
chain: B8 chain with T14E, M16R, G65R
notes: not shown: C-terminal His tag (pET29b, NdeI/XhoI)
As to B11, the equilibrium dissociation constant (Kd) in [10] was determined as 0.404 nM.

B12: av6_3 E13TG64R (designed binder)
chain: B8 chain with G65R
notes: as for B11
The molecule B12 gave a Kd in assay [10] of 0.398 nM.

B13: BP2 labelled with Alexa Fluor 488 on an engineered C-terminal cysteine (designed binder)
chain: B8 chain with T14E, A40K, G65R
modifications: Alexa Fluor 488 C5 maleimide on the engineered C-terminal cysteine
notes: also called AG-AF488; fluorescently labelled BP2; not shown: engineered C-terminal cysteine and any tag
In turn, B13 displayed an equilibrium dissociation constant (Kd) in assay [14] of 0.03 nM.

B14: av6_3 M15R (designed binder)
chain: B8 chain with T14E, M16R
notes: as for B11
In the case of B14, in assay [10], the Kd was 0.38 nM.

B15: av6_3 G64R (designed binder)
chain: B8 chain with T14E, G65R
notes: as for B11
B15: the Kd in assay [10] was determined as 0.47 nM.

B16: av6_3 A39K (designed binder)
chain: B8 chain with T14E, A40K
notes: as for B11
In assay [10], B16 showed an equilibrium dissociation constant (Kd) of 0.411 nM.

B17: av6_3 E13TM15RA39KG64R (designed binder)
chain: B8 chain with M16R, A40K, G65R
notes: as for B11
With B17, the affinity in assay [10], expressed as Kd, was 0.42 nM.

B18: av6_7 (designed binder)
chain: B8 chain with T14E, T36D, N37E, N38S, A40F
notes: as for B1
B18: the “X(selectivity)” value in assay [1] was found to be 1.5 X.

B19: av6_3 E13TM15RA39K (designed binder)
chain: B8 chain with M16R, A40K
notes: as for B11
In [10], B19 displayed an equilibrium dissociation constant (Kd) of 0.397 nM.

B20: av6_11 (designed binder)
chain: MAVVRFVFRGDLAELMLRAVKDHLKKEGPHWNITSDTSKGAELVVRGIHESDAKRIAKWVEKRFPGVHTETQQ
notes: as for B1
Take B20: the “X(selectivity)” value in assay [1] was determined as 8 X.

B21: av6_15 (designed binder)
chain: B20 chain with D36V, T37E, K39S, G40Q, A41V
notes: as for B1
For the molecule B21, in assay [1], the “X(selectivity)” value was determined as 6 X.

B22: av6_12 (designed binder)
single chain: MAVVRFVFRGDLAELMLRAVKDHLKKEGPHWNITSDTSKGAELVVRGIHESDAKRIAKWARLKFPGTDTRIEV
Consider B22, for which the binding result in assay [2] was “binds”.

B23: av6_16 (designed binder)
single chain: B22 single chain with D36V, T37E, K39S, G40Q, A41V
For the molecule B23, in assay [2], the binding result is listed as “binds”.
